PMC10401710, “Cell Surface Labeling and Detection of Protein Tyrosine Kinase 7 via Covalent Aptamers”

How the values were obtained:
PTK7-CFP = target: T1, PTK7-CFP (UniProt Q13308); test: covalent biotin transfer on cells, SA-HRP blot; settings: EC50 of label transfer, not equilibrium Kd; transfected HEK293T, 1 h, 5 mM MgCl2; T27 replaced by 5-octadiynyl-dU, clicked to azide-tethered N-acyl sulfonamide biotin electrophile 1; DPBS with 5 mM MgCl2, 4.5 g/L glucose, pH 7.4, 37 C, 1 h (cells: plus 0.1 mg/mL yeast tRNA); read-out is proximity-driven covalent labeling, no equilibrium Kd …
T1 sequence: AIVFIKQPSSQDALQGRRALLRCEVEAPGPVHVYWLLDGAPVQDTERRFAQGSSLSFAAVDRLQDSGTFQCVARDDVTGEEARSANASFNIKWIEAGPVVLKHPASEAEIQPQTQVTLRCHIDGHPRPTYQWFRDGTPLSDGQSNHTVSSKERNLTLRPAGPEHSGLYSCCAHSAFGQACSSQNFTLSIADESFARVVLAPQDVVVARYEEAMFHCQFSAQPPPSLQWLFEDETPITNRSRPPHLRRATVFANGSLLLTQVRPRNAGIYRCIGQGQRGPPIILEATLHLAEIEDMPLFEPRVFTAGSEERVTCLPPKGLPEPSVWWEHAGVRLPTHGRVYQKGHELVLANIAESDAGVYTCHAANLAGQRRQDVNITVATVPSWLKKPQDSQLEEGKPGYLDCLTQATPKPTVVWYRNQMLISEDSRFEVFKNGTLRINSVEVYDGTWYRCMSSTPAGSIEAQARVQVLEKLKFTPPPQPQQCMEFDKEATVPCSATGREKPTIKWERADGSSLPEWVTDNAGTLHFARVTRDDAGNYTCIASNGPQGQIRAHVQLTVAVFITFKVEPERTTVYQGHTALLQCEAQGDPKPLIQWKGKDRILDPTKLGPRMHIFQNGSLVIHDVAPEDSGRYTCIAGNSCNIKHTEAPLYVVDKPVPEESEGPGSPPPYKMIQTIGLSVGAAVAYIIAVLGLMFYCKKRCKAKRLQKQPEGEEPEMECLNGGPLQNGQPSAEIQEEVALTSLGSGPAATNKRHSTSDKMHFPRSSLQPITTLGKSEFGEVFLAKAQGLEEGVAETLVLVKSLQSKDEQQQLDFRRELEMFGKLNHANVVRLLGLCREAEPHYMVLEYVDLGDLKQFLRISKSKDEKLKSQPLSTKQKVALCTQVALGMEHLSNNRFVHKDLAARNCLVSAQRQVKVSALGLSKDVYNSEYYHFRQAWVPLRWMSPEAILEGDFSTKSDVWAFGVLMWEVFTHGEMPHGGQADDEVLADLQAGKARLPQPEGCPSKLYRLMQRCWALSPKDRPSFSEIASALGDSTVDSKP

[1] = target: T2, PTK7 (recombinant, R&D Biosystems NC2081082) (UniProt Q13308 31-703); test: covalent biotin transfer, SA-HRP blot; EC50 of label transfer, not equilibrium Kd; 100 nM PTK7, 1 h, 37 C, 5 mM MgCl2; DPBS with 5 mM MgCl2, 4.5 g/L glucose, pH 7.4, 37 C, 1 h (cells: plus 0.1 mg/mL yeast tRNA); read-out is proximity-driven covalent labeling, no equilibrium Kd measured; settings: protein: commercial; label: transferable biotin; stem-loop (UNIFold prediction)
T2 sequence: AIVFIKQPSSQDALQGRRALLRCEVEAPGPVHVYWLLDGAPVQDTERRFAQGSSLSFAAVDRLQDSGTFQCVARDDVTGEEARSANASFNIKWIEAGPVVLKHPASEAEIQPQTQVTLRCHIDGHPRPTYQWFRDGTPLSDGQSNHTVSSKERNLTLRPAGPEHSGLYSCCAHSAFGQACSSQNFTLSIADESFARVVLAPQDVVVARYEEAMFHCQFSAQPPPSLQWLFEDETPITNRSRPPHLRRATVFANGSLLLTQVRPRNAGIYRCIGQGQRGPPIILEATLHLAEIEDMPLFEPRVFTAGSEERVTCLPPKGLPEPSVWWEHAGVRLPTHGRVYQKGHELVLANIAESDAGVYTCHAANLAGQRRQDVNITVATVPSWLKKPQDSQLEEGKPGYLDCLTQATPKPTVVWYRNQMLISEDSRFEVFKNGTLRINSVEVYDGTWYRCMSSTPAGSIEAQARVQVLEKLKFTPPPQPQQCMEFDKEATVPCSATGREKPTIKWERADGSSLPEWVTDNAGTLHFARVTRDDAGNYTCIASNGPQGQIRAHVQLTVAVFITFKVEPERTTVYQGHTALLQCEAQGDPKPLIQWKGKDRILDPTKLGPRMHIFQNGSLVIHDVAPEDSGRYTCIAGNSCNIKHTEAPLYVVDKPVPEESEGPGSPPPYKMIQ

ATCTAACTGCTGCGCCGCCGGGAAAATACTGTACGGTTAGA [sgc8c(27)-1]
K half (PTK7-CFP): 251 nM

B1: sgc8c(27)-1 (structured_DNA)
DNA: ATCTAACTGCTGCGCCGCCGGGAAAATACTGTACGGTTAGA
modifications: T27 replaced by 5-octadiynyl-dU, clicked to azide-tethered N-acyl sulfonamide biotin electrophile 1
apparent K (half saturation) [1]: 203 nM
